Results as given in paper PMC314469, “Protein Interaction Networks by Proteome Peptide Scanning” (PLoS Biology, 2004).

Columns and labels:
Assay in all cases: SPOT array
[1] = molecular target: T1, Rvs167 SH3 (RV167_YEAST), P39743
T1 chain: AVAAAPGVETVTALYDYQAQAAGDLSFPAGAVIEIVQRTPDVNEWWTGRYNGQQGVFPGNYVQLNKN

[2] = molecular target: T2, Yhr016c SH3 (YSC84_YEAST), P32793
T2 chain: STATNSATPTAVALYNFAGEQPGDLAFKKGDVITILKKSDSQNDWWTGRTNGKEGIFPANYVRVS

[3] = molecular target: T3, Boi2 SH3 (BOI2_YEAST), P39969
T3 chain: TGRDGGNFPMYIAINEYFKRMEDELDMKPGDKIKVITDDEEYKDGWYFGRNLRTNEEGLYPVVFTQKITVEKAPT

[4] = molecular target: T4, Yfr024 SH3 (LSB3_YEAST), P43603
T4 chain: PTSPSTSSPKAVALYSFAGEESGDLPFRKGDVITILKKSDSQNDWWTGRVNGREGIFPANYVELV

[5] = molecular target: T5, Boi1 SH3 (BOI1_YEAST), P38041
T5 chain: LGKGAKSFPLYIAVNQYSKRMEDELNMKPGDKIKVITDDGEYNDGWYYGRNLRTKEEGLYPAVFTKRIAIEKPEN

Binder: KRPPTAPQRKISLP [YPR171W 469-482]
- normalised SPOT signal, Boehringer light units (BLU); mean over the file's lines of this peptide [1]: 605
- normalised SPOT signal, Boehringer light units (BLU); mean over the file's lines of this peptide [2]: 1820
- normalised SPOT signal, Boehringer light units (BLU); mean over the file's lines of this peptide [3]: 51.3
- normalised SPOT signal, Boehringer light units (BLU); mean over the file's lines of this peptide [4]: 8630
- normalised SPOT signal, Boehringer light units (BLU); mean over the file's lines of this peptide [5]: 285

Binder: KRTPKIPEKDVKSD [YDR026C 223-236]
- normalised SPOT signal, Boehringer light units (BLU); mean over the file's lines of this peptide [1]: 242
- normalised SPOT signal, Boehringer light units (BLU); mean over the file's lines of this peptide [2]: 187
- normalised SPOT signal, Boehringer light units (BLU); mean over the file's lines of this peptide [3]: 47.6
- normalised SPOT signal, Boehringer light units (BLU); mean over the file's lines of this peptide [4]: 342
- normalised SPOT signal, Boehringer light units (BLU); mean over the file's lines of this peptide [5]: 151

Binder: KSFPPPPLKPGQKT [YBR108W 84-97]
- normalised SPOT signal, Boehringer light units (BLU); mean over the file's lines of this peptide [1]: 57.7
- normalised SPOT signal, Boehringer light units (BLU); mean over the file's lines of this peptide [2]: 229
- normalised SPOT signal, Boehringer light units (BLU); mean over the file's lines of this peptide [3]: 183
- normalised SPOT signal, Boehringer light units (BLU); mean over the file's lines of this peptide [4]: 220
- normalised SPOT signal, Boehringer light units (BLU); mean over the file's lines of this peptide [5]: 112

Binder: KSKPKVPAKNPELE [YNL106C 1157-1170]
- normalised SPOT signal, Boehringer light units (BLU); mean over the file's lines of this peptide [1]: 50.8
- normalised SPOT signal, Boehringer light units (BLU); mean over the file's lines of this peptide [2]: 210
- normalised SPOT signal, Boehringer light units (BLU); mean over the file's lines of this peptide [3]: 46
- normalised SPOT signal, Boehringer light units (BLU); mean over the file's lines of this peptide [4]: 396
- normalised SPOT signal, Boehringer light units (BLU); mean over the file's lines of this peptide [5]: 166

Binder: KSSPWSPYKVEKVL [YBR156C 161-174]
- normalised SPOT signal, Boehringer light units (BLU); mean over the file's lines of this peptide [1]: 156
- normalised SPOT signal, Boehringer light units (BLU); mean over the file's lines of this peptide [2]: 320
- normalised SPOT signal, Boehringer light units (BLU); mean over the file's lines of this peptide [3]: 122
- normalised SPOT signal, Boehringer light units (BLU); mean over the file's lines of this peptide [4]: 253
- normalised SPOT signal, Boehringer light units (BLU); mean over the file's lines of this peptide [5]: 117

Binder: KSVPIPPRKNATLD [YJR113C 102-115]
- normalised SPOT signal, Boehringer light units (BLU); mean over the file's lines of this peptide [1]: 12100
- normalised SPOT signal, Boehringer light units (BLU); mean over the file's lines of this peptide [2]: 992
- normalised SPOT signal, Boehringer light units (BLU); mean over the file's lines of this peptide [3]: 146
- normalised SPOT signal, Boehringer light units (BLU); mean over the file's lines of this peptide [4]: 25100
- normalised SPOT signal, Boehringer light units (BLU); mean over the file's lines of this peptide [5]: 1140

Binder: KTKPSIPPKKVELN [YPR171W 354-367]
- normalised SPOT signal, Boehringer light units (BLU); mean over the file's lines of this peptide [1]: 27.4
- normalised SPOT signal, Boehringer light units (BLU); mean over the file's lines of this peptide [2]: 133
- normalised SPOT signal, Boehringer light units (BLU); mean over the file's lines of this peptide [3]: 34.8
- normalised SPOT signal, Boehringer light units (BLU); mean over the file's lines of this peptide [4]: 1930
- normalised SPOT signal, Boehringer light units (BLU); mean over the file's lines of this peptide [5]: 46

Binder: KTKPTPPPKPSHLK [YNL020C 606-619]
- normalised SPOT signal, Boehringer light units (BLU); mean over the file's lines of this peptide [1]: 8.2
- normalised SPOT signal, Boehringer light units (BLU); mean over the file's lines of this peptide [2]: 236
- normalised SPOT signal, Boehringer light units (BLU); mean over the file's lines of this peptide [3]: 71.3
- normalised SPOT signal, Boehringer light units (BLU); mean over the file's lines of this peptide [4]: 16700
- normalised SPOT signal, Boehringer light units (BLU); mean over the file's lines of this peptide [5]: 153

Binder: KTVPQSPKKPLSLL [YOR058C 193-206]
- normalised SPOT signal, Boehringer light units (BLU); mean over the file's lines of this peptide [1]: 17.8
- normalised SPOT signal, Boehringer light units (BLU); mean over the file's lines of this peptide [2]: 192
- normalised SPOT signal, Boehringer light units (BLU); mean over the file's lines of this peptide [3]: 53.9
- normalised SPOT signal, Boehringer light units (BLU); mean over the file's lines of this peptide [4]: 280
- normalised SPOT signal, Boehringer light units (BLU); mean over the file's lines of this peptide [5]: 101

Binder: KWEPSTPQRKGPIL [YLR460C 166-179]
- normalised SPOT signal, Boehringer light units (BLU); mean over the file's lines of this peptide [1]: 51.1
- normalised SPOT signal, Boehringer light units (BLU); mean over the file's lines of this peptide [2]: 603
- normalised SPOT signal, Boehringer light units (BLU); mean over the file's lines of this peptide [3]: 43
- normalised SPOT signal, Boehringer light units (BLU); mean over the file's lines of this peptide [4]: 2430
- normalised SPOT signal, Boehringer light units (BLU); mean over the file's lines of this peptide [5]: 1870

Binder: KWEPSTPQRNGPIL [YCR102C 158-171]
- normalised SPOT signal, Boehringer light units (BLU); mean over the file's lines of this peptide [1]: 31.1
- normalised SPOT signal, Boehringer light units (BLU); mean over the file's lines of this peptide [2]: 1620
- normalised SPOT signal, Boehringer light units (BLU); mean over the file's lines of this peptide [3]: 31.6
- normalised SPOT signal, Boehringer light units (BLU); mean over the file's lines of this peptide [4]: 3400
- normalised SPOT signal, Boehringer light units (BLU); mean over the file's lines of this peptide [5]: 143

Binder: KYDPDNPNKDKLGT [YBR235W 52-65]
- normalised SPOT signal, Boehringer light units (BLU); mean over the file's lines of this peptide [1]: 48.2
- normalised SPOT signal, Boehringer light units (BLU); mean over the file's lines of this peptide [2]: 266
- normalised SPOT signal, Boehringer light units (BLU); mean over the file's lines of this peptide [3]: 66.7
- normalised SPOT signal, Boehringer light units (BLU); mean over the file's lines of this peptide [4]: 20.9
- normalised SPOT signal, Boehringer light units (BLU); mean over the file's lines of this peptide [5]: 146

Binder: KYDPEDPNRRKLAR [YPL093W 387-400]
- normalised SPOT signal, Boehringer light units (BLU); mean over the file's lines of this peptide [1]: 30.9
- normalised SPOT signal, Boehringer light units (BLU); mean over the file's lines of this peptide [2]: 172
- normalised SPOT signal, Boehringer light units (BLU); mean over the file's lines of this peptide [3]: 15.7
- normalised SPOT signal, Boehringer light units (BLU); mean over the file's lines of this peptide [4]: 222
- normalised SPOT signal, Boehringer light units (BLU); mean over the file's lines of this peptide [5]: 310

Binder: KYGPLPPSRASVGS [YLR143W 388-401]
- normalised SPOT signal, Boehringer light units (BLU); mean over the file's lines of this peptide [1]: 65.7
- normalised SPOT signal, Boehringer light units (BLU); mean over the file's lines of this peptide [2]: 488
- normalised SPOT signal, Boehringer light units (BLU); mean over the file's lines of this peptide [3]: 41.5
- normalised SPOT signal, Boehringer light units (BLU); mean over the file's lines of this peptide [4]: 2010
- normalised SPOT signal, Boehringer light units (BLU); mean over the file's lines of this peptide [5]: 551

Binder: LAPPLSPTKPSPLH [YDR425W 253-266]
- normalised SPOT signal, Boehringer light units (BLU); mean over the file's lines of this peptide [1]: 30.7
- normalised SPOT signal, Boehringer light units (BLU); mean over the file's lines of this peptide [2]: 77.1
- normalised SPOT signal, Boehringer light units (BLU); mean over the file's lines of this peptide [3]: 6.5
- normalised SPOT signal, Boehringer light units (BLU); mean over the file's lines of this peptide [4]: 111
- normalised SPOT signal, Boehringer light units (BLU); mean over the file's lines of this peptide [5]: 81.4

Binder: LARPPPPKRIRTDS [YKL139W 32-45]
- normalised SPOT signal, Boehringer light units (BLU); mean over the file's lines of this peptide [1]: 1260
- normalised SPOT signal, Boehringer light units (BLU); mean over the file's lines of this peptide [2]: 3210
- normalised SPOT signal, Boehringer light units (BLU); mean over the file's lines of this peptide [3]: 70.2
- normalised SPOT signal, Boehringer light units (BLU); mean over the file's lines of this peptide [4]: 15700
- normalised SPOT signal, Boehringer light units (BLU); mean over the file's lines of this peptide [5]: 528

Binder: LSIPDLPLRIHNQT [YCR087W 13-26]
- normalised SPOT signal, Boehringer light units (BLU); mean over the file's lines of this peptide [1]: 2710
- normalised SPOT signal, Boehringer light units (BLU); mean over the file's lines of this peptide [2]: 31200
- normalised SPOT signal, Boehringer light units (BLU); mean over the file's lines of this peptide [3]: 35.3
- normalised SPOT signal, Boehringer light units (BLU); mean over the file's lines of this peptide [4]: 25400
- normalised SPOT signal, Boehringer light units (BLU); mean over the file's lines of this peptide [5]: 69.2

Binder: LDDPFTPPRWLHHI [YDR128W 52-65]
- normalised SPOT signal, Boehringer light units (BLU); mean over the file's lines of this peptide [1]: 89
- normalised SPOT signal, Boehringer light units (BLU); mean over the file's lines of this peptide [2]: 708
- normalised SPOT signal, Boehringer light units (BLU); mean over the file's lines of this peptide [3]: 38.5
- normalised SPOT signal, Boehringer light units (BLU); mean over the file's lines of this peptide [4]: 3400
- normalised SPOT signal, Boehringer light units (BLU); mean over the file's lines of this peptide [5]: 423

Binder: LDHPNIPWKLIISG [YJR117W 8-21]
- normalised SPOT signal, Boehringer light units (BLU); mean over the file's lines of this peptide [1]: 7.6
- normalised SPOT signal, Boehringer light units (BLU); mean over the file's lines of this peptide [2]: 150
- normalised SPOT signal, Boehringer light units (BLU); mean over the file's lines of this peptide [3]: 35.2
- normalised SPOT signal, Boehringer light units (BLU); mean over the file's lines of this peptide [4]: 7.9
- normalised SPOT signal, Boehringer light units (BLU); mean over the file's lines of this peptide [5]: 76.1

Binder: LDRPQLPPRQVVNA [YMR192W 159-172]
- normalised SPOT signal, Boehringer light units (BLU); mean over the file's lines of this peptide [1]: 25900
- normalised SPOT signal, Boehringer light units (BLU); mean over the file's lines of this peptide [2]: 29100
- normalised SPOT signal, Boehringer light units (BLU); mean over the file's lines of this peptide [3]: 31.9
- normalised SPOT signal, Boehringer light units (BLU); mean over the file's lines of this peptide [4]: 14400
- normalised SPOT signal, Boehringer light units (BLU); mean over the file's lines of this peptide [5]: 143

Binder: LDYPKAPIKLTMKS [YIL161W 160-173]
- normalised SPOT signal, Boehringer light units (BLU); mean over the file's lines of this peptide [1]: 5.9
- normalised SPOT signal, Boehringer light units (BLU); mean over the file's lines of this peptide [2]: 344
- normalised SPOT signal, Boehringer light units (BLU); mean over the file's lines of this peptide [3]: 12.9
- normalised SPOT signal, Boehringer light units (BLU); mean over the file's lines of this peptide [4]: 538
- normalised SPOT signal, Boehringer light units (BLU); mean over the file's lines of this peptide [5]: 48

Binder: LENPSTPDKTEEDW [YKL010C 724-737]
- normalised SPOT signal, Boehringer light units (BLU); mean over the file's lines of this peptide [1]: 27.7
- normalised SPOT signal, Boehringer light units (BLU); mean over the file's lines of this peptide [2]: 68.6
- normalised SPOT signal, Boehringer light units (BLU); mean over the file's lines of this peptide [3]: 52.1
- normalised SPOT signal, Boehringer light units (BLU); mean over the file's lines of this peptide [4]: 61
- normalised SPOT signal, Boehringer light units (BLU); mean over the file's lines of this peptide [5]: 50.1
